In patent US7759459B2, “Fluorescent assays for protein kinases” (Albert Einstein College of Medicine of Yeshiva University, priority 2003, dated 2010):

Key:
[1] = system: T1, N=C(N)NCCC[C@H](NC(=O)[C@H](CCCNC(=N)N)NC(=O)[C@H](CCCNC(=N)N)NC(=O)[C@H](CCCNC(=N)N)NC(=O)[C@H](Cc1ccccc1)NC(=O)[C@H](CO)Nc1ccc([N+](=O)[O-])c2nonc12)C(=O)N[C@@H](CCCCN)C(N)=O; assay: Radioactive PKC assay ([γ-32P]ATP); format: biochemical, human; settings: other: PKCγ, 30.0 °C
T1 construct: purchased Panvera
Description: Radioactive PKC Assay—Radioactive assays were performed in duplicate at 30° C. The final assay volume totaled 40 μl and contained 62.5 mM HEPES (pH 7.4), 0.75 mM CaCl2, 12.5 mM MgCl2, 1 mM dithiothreitol, 0.5 mM EGTA, 7.5 μg/mL phosphatidylserine, 1.6 μg/mL diacylglycerol, and 10 ng of PKC. […] Phosphorylation reactions were initiated by the addition of 10 μL of PKC from a stock solution (20 mM Tris-HCl at pH 7.5, 1 mM dithiothreitol, 1 mM EDTA, and 0.75 mg/mL bovine serum albumin) into 30 μL of assay buffer containing peptide substrate. Reactions were terminated after 5 min by spotting 25 μL aliquots onto phosphocellulose paper disks (2.1 cm in diameter). After 10 s, the disks were immersed in 10% glacial acetic acid and soaked with occasional stirring for at least 1 h. The acetic acid was decanted and the disks were collectively washed with four volumes of 0.5% H3PO4, 1 volume of water, followed by a final acetone rinse. The disks were air dried and then counted in a Beckman LS scintillation counter.

[2] = system: T1, N=C(N)NCCC[C@H](NC(=O)[C@H](CCCNC(=N)N)NC(=O)[C@H](CCCNC(=N)N)NC(=O)[C@H](CCCNC(=N)N)NC(=O)[C@H](Cc1ccccc1)NC(=O)[C@H](CO)Nc1ccc([N+](=O)[O-])c2nonc12)C(=O)N[C@@H](CCCCN)C(N)=O; assay: Fluorescent PKC assay (spectrofluorimetry); format: biochemical, human; settings: other: PKCγ; Fluorescence; pH 7.4; 30.0 °C
Description: Fluorescent PKC assay-Fluorescence assays were performed in triplicate at 30° C. and initiated by addition of ATP to a 100 μL cuvette containing a 50 μL solution of PKC and peptide substrate 2. Final conditions: 62.5 mM HEPES pH 7.4, 3 mM MgCl2, 0.3 mM CaCl2, 0.1 mM EGTA, 1 mM DTT, 0.5 μg/mL phosphatidylserine, 0.1 μg/mL diacylglycerol, 1 mM ATP, and 13 nM PKC. After the addition of ATP, the solution was gently mixed and the time-dependent change in fluorescent intensity (excitation: 520 nm, emission: […]) continuously monitored with a Photon Technology QM-1 spectrofluorimeter.

## PKCγ (Homo sapiens)
[1]
  Km: 5.0 ± 1.0 µM
  kcat: 210 ± 20 min⁻¹
  kcat/Km: 42 ± 9 min⁻¹ µM⁻¹
[2]
  Km: 30 ± 5 µM
  kcat: 3.17 ± 0.667 s⁻¹
  kcat/Km: 105000 ± 28300 M⁻¹ s⁻¹
